Where no end group is shown, it is not given here. The star is where a group is joined. NBD = O=[N+]([O-])c1ccc(*)c2nonc12
Target: T1, bovine serum albumin (bovine, UniProt P02769 25-607)
T1 construct: bovine serum albumin; Free BSA in PBS, not the crosslinked BSA shell of the nanoparticles; also called BSA; source: bought: Sigma
Assay: fluorescence polarisation; fluorescence anisotropy of NBD; constant 0.4 uM ATRAM-NBD, increasing BSA (0.25-15 uM); PBS; room temperature; excitation 460 nm, emission 535 nm
Conditions: both partners purified

T1 sequence (P02769 25-607): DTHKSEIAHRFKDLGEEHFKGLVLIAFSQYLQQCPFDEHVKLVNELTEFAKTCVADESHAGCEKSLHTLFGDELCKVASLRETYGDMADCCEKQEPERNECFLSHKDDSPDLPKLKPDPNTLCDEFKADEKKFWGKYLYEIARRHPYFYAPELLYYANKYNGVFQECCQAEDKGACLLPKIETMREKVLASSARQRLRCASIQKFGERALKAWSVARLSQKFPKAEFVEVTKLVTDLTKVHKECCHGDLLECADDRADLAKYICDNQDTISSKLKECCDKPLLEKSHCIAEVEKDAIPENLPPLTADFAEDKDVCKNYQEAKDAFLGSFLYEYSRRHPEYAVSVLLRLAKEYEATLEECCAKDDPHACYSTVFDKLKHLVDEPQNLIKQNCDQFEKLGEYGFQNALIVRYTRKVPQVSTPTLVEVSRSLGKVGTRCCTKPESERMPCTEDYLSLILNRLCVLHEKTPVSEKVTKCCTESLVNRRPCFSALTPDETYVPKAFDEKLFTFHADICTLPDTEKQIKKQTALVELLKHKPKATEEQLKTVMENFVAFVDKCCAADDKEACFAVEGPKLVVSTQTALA

B1: NBD-labeled ATRAM (acidity-triggered rational membrane peptide), C-terminal cysteine variant (peptide)
peptide: GLAGLAGLLGLEGLLGLPLGLLEGLWLGLELEC(NBD)N
notes: designed pH-responsive ATRAM peptide, variant with a cysteine (underlined in print) next to the C-terminal residue; also called ATRAM-NBD; source: C-terminal cysteine ATRAM variant labelled with NBD; purified by PD-10 gel filtration and reverse-phase HPLC (parent ATRAM peptide: synthesized by Selleck Chemicals, Fmoc)
Work on B1 yielded a Kd of 295 nM.

Reference: PMC7054360, “pH-responsive high stability polymeric nanoparticles for targeted delivery of anticancer therapeutics” (Communications Biology, 2020)
